Source: article PMC7893194

Target: interferon α (IFNα) (UniProt P01563)
Experiment: SPR

B1: human IFNAR1 (receptor)
chain: KNLKSPQKVEVDIIDDNFILRWNRSDESVGNVTFSFDYQKTGMDNWIKLSGCQNITSTKCNFSSLKLNVYEEIKLRIRAEKENTSSWYEVDSFTPFRKAQIGPPEVHLEAEDKAIVIHISPGTKDSVMWALDGLSFTYSLVIWKNSSGVEERIENIYSRHKIYKLSPETTYCLKVKAALLTSWKIGVYSPVHCIKTTVENELPPPENIEVSVQNQNYVLKWDYTYANMTFQVQWLHAFLKRNPGNHLYKWKQIPDCENVKTTQCVFPQNVFQKGIYLLRVQASDGNNTSFWSEEIKFDTEIQAFLLPPVFNIRSLSDSFHIYIGAPKQSGNTPVIQDYPLIYEIIFWENTSNAERKIIEKKTDVTVPNLKPLTVYCVKARAHTMDEKLNKSSVFSDAVCEKTKPGNTSKIWLIVGICIALFALPFVIYAAKVFLRCINYVFFPSLKPSSSIDEYFSEQPLKNLLLSTSEEQIEKCFIIENISTIATVEETNQTDEDHKKYSSQTSQDSGNYSNEDESESKTSEELQQDFV
Kd: 4.58 nM
